Measured values from a protein production outcome set (Wang et al. 2014).

Experiment: label from the status in PepcDB records

METRTLEDWRALLEAEKTLDSGVYNKHDLLIVRGQGARVWDAEGNEYIDCVGGYGVANLGHGNPEVVEAVKRQAETLMAMPQTLPTPMRGEFYRTLTAILPPELNRVFPVNSGTEANEAALKFARAHTGRKKFVAAMRGFSGRTMGSLSVTWEPKYREPFLPLVEPVEFIPYNDVEALKRAVDEETAAVILEPVQGEGGVRPATPEFLRAAREITQEKGALLILDEIQTGMGRTGKRFAFEHFGIVPDILTLAKALGGGVPLGAAVMREEVARSMPKGGHGTTFGGNPLAMAAGVAAIRYLERTRLWERAAELGPWFMEKLRAIPSPKIREVRGMGLMVGLELKEKAAPYIARLEKEHRVLALQAGPTVIRFLPPLVIEKEDLERVVEAVRAVLA
protein production: not failed

MLDKNVLNEIGSKVNEILASSPARDVEKNMRAMLTGAFARLDLVTREEFDVQQEVIKRTRIKLAELEEKVRKLEQQLQQPAEVVSSNETGDA
protein production: not failed

MKKIIGLLFIVSCCILLSPTIKVQADTVPLPAPIIEAFPVEAIAEAIAEELDKDSVNDIITQEDLDTITILPFPGLNLTGEDLNVLNNEVFTNATELAIWSNNIGEMPDLSESLPALETIKASDANITQFPNANYPNLTTVDFSKNNFGINIPEFIGMEKLVSINMEQAELSGYIAKDIWMNMPNLETLLLRDNHLISIPEDIFLTGQIRNRSFDGQTATYPPRTIKQGENLDVFVPFIYQALDFIAPAPGNEMIINDNGEFLYKPVYPSYTGSYMYTIETAGLEPGEHLLEISLNYNGSEYLGWYDFPVTITE
protein production: failed

MVTLTLLEPQQKTPLKQWCFENSSVIRIGRAADNHVILSDNLVSRHHLEIRQVSSGGGGSWQVVSKGTNGTFLNGVLVIQDALPNNALLQLAQGGPILQFQVQGIIPPEWQSISGSDSPLSGRGSLAEKSSPELSNNPGSLTCTHEGNSPQNLFCIHCGQPLSVIQTIRHYQVLRTLGQGGMGTTYLAWDAAGVIVGHPKLLVLKQMNADMARIAKAQELFEREAYTLKSLDHPGIPRYYDFFVEGGKKYLAMELVHGQDLEKRIYATGPVIPSLAIAWMIQTCDILDYLHRQEQPLIHRDIKPANLMVRTANNQIAVLDFGAVKEIGTTPGTRIGAEGYCAPEQERGQPLTQSDLYAIGPTIIFLLTGENPFKFYRQKGRGFRFDVSKIPTITPKLRDVIERTTEPLPRDRFQSAKELAAALAACK
protein production: failed

MNRTMSSINVLSLPVFNRDASGYDALRRGLIPCFDAFYGTALDLIDDWRDAEKLRVLDLGAGTGLFTAMLLTRHPDAQIHLIDASEKMLEQARKRFDGNPAITYAVADMANTELGGPWDLIISALAIHHLEDIGKKHLFGEIRGALSEGGLFVNVEQVLGHDPEVEARYARTWLQQVRRLGVAEVEIAKAHERMSHDRCSPLENQLQWMRDTGFCEIDCSFKAWRFAVLSGRR
protein production: failed

MSDWNIDQAEELYGVNRWGAGYFSIGENGNIQIRPNHRLPDVTIDMKEVVDEIISEGIQFPAVIRFHDILRSQVEIINETFGKQIEEANYQGQYCGVFPIKVNQMREVVEEIMDAGEPYNYGLEAGSKPELMAVMAYNDNPEALTILNGYKDKDYLTLALLGRQLKRKMIIVIEKFSELEMLIPLAKQMGVKPMIGLRSKMMVKSSGKWAGSSGDRAKFGLSIAEILNVIERLREEDMLHCAKLLHFHIGSQLSDIRKIKEAVNEGARLYAKLVLEGMPLEYLDIGGGLGIDYDGTSTTNDSSRNYSTEEYVADVVWGVKQICDLEKVPHPNLVSESGRAMTAHHSCVVTNIVGEMKPAGTQYDISASSDEHILVKNMRELHSSGDQFHPQERYNDAAGYKQNAYEAFKLGILSLNEMAKLDTMYWQILADIHHSLDKDTYVMQELEELEDMLASQYLCNFSVFQSAADTWAIGQVLPVVPISRLNEQPEVRCSIVDITCDSDGKLSKYIEGTDISDHIPMHNLRKGEDYHVGLFLTGAYQDVMGDMHNLFGRLTEVHVYCHDDEPGDFYIEEVVPGTSAEKVLQTMQYNTEYMAKTVKKQIDRQVRKGSLAPREGVRWTNFYEHCLAGSTYLRVE
protein production: failed

MGQPSDLTESTLRFSSLDPLHPPVISQLTAIAKRIRRNSLHLPTIWQEAVDSIGSTLGVSRCLLLTKDFQSRHLQIEAEFCQPTVTAFAALIVPEESEIWRQLFEQHQPITLYNVQFQGEDLGGLWIFPTLYQDQANGYLCLQQVGPAPGPWHPETEALLQELAEQTGTAIAHATLYQELTQATKAAEEASRLKSEFLASTTHELRTPLNGIIGFLRLILDDMADSEAEKHEFVEEAYQSALLLLNLINDILDLAKIEAGRVGIELEVVDFSEVLQATENFALPQAQNKGLSFNLTAPNQGPLLVYGNQRWLLQVMLNIVGNAIKFTHEGGITVAVEVMPRTVLWEGVQKPGLLKVSVGDTGIGVSLEQQSKLFKKFVQIDGSHSKAYGGTGLGLVISQKLVETMGGKVAFFSMGEGLGSTVTFTVLLEELP
protein production: failed

SNIRLIATDMDGTLTQQGRFSAALLQTLENLKAAGLPILIVTGRSAGWVSGISSLMPIAGAIGENGGLFYPADSEHPLLLTPIADLTGHRQNLALVFQKLKQKFPQIQESGDNRFRITDWTFDVAGLTLAELQLIGNLCQDMGWGFTYSNVQCHIKPQGQEKAIALLQVLQKYFPDYSPTQVVTVGDSPNDESLFNQRYFPLSVGVANVLKYAHQLQHQPSYVTTTAEGEGFCELCSYIL
protein production: failed

MRFSRARTEEVLRALVHEIRAERLTFMAGSIAYHAFLSILPLLLLVLTFVQRTENVTLRASIVGIMEAVLTTQASGIIQQGLTEADASVSALGVGFLLWGSLRIFRGLDTAFSDIYETGASNTFLDQLGDGLVLLVTVAVAILSASALGSVLPETGSGPLWTVASGLVRAAGLFVVFYPMYYIFPDTDVSPLEAVPGVAFAAIGLTVAQVLFTAFKSGSTGGNIIASILVLLSWLYIIGLVILLGAAINAVLSNRSADVDIDPVVGEHSQQNTIRTTTMSREALLAELETLADRFQQGQGTITVEIADERTDIDCPETATVDRSSDVFGLDQSVALTLRWWPNEK
protein production: failed

MFHFSLSPRRTGRGARPRARLGAMLALAFLAGGLTAGPGNAAEGAGATAERQYCACMALARSRPDQAFEKAGQWKALGGGVPARHCEAVALLGLKEYGEAARRLEALAEDVKLARGLRVDLLTQAGQAWLAVGDLSRAYANQTTALQLAGARAQSGAPALSSVLPDLYIDRAVTLAQAGRDDEATTDLTKALALQPASVTALVLRASAQRRQGRLTAARADAEAAVKRAPNDAEARLERGDVRLALGDRDGARADWLKVLELAPREGAADAARARIETLDLKVR
protein production: failed

MRERTEARRRRIEEVLRRRQPDLTVLLENVHKPHNLSAILRTCDAVGVLEAHAVNPTGGVPTFNETSGGSHKWVYLRVHPDLHEAFRFLKERGFTVYATALREDARDFREVDYTKPTAVLFGAEKWGVSEEALALADGAIKIPMLGMVQSLNVSVAAAVILFEAQRQRLKAGLYDRPRLDPELYQKVLADWLRK
protein production: not failed

MKTLVHLSDLHFGKTESQLVDAIAAEVRAVDSDLLVVSGDLTQRARKDEFLQARAFLDSLPGPRIVVPGNHDVPLWNVFARAMTPLSRYRRYIEADTDPFYADSEVAVVGINTARSLTIKDGRINVRQLKAATEKFAHMSDDITRIVVTHHPFEGRDLESDDGIVGRADLAMHAFSRSGVDIILSGHQHLHRAGSSARRYLIDGYAALLIQAGTAVSSRLRRAANSFNIIRIEHPRISVECRAWQPSQSGFETSASYSFRQGPGGWKPT
protein production: failed

SMSEHSAIVTWKRKDSEAFTDNQYSRAHTWEFDGGSKILASASPHVVPVPLSVEANVDPEEAFVAALSSCHMLVFLSIAAKQRYLVESYTDNAVGILGKNSKGKTSVTKVVLRPQVVFSGTSKPTLQQLEKMHHLAHENCFIANSVETEVVTEII
protein production: not failed

DMAFQLRTERLDLNMWEESDAVWLRELIGERGVEMPTVESVRNDLIEKRKIAVENGISLLTIRRRDEGDFIGYCGLIIGRSTLEEPEIAYELFRSAHRMGYATEAASAVLEAAIATGRKRLWSTVGAWNTASFRVLEKIGFKR
protein production: failed

MITVVIASRLREDRLDYLTAMHASLTRQSVPWEAVIALDGASPDRLPRQLAQDPRVDTLVLPRPVGAACARNLALTQVRTRYVNWADDDDEFTDDAMSVRLETLESTGVGWCAGWSEDQFRDGSTRLWRCPTPPGRHEAGDVWTFWKSPADTIPIGPTTILARTDLVRAAPMGGLVQGEDYCAALGVTALAPGILLPLPVYRYRKWGGQMTAQDGYDQLETAAREHAWAYGRSLRAVLRGGEDLVHVLEHHHHHH
protein production: failed

MRDAYLMMVLMDALKEIFDLKEILKSPIRNKKVILFVSLVFILSLVLLYILVVNIKYFSYLGDIIFQNFQKHVENLKITLNEDNLHIILAIWKNNLTVCILNYILGIFSLFVIAVNSYILSYVLYKFGAESFIYLVLPHGIIEIPALILSASGGVLFNMGLVNFLINIKFGTKREVLYYIKESLKLLILSIILFIVAGIVEGTITFKIAKIMFS
protein production: failed

MKIGDKVRFLSEVGGGIVTGFKGKDFVLVEDADGFDIPMPIRECVVIEADDYNIKRKPAATAPKQEEPAKPAKPEMPVIQRQPEVRGGDTLNVFLAYVPEDAKAMMTTPFEAYLVNDSNYYLYYTYLSAEGKAWNNRSHGLVEPNTKLLLEEFTKDVLNEMERVAVQLIAFKDGKPAAIKPAVSVELRIDTVKFYKLHTFSASDFFEEPALIYDIVKDDVPAKQVYVSAEEIQSALLQKKFVDKPKSQPIMKPNHGQSGKNGIIEVDLHIDSLLDDTHGMSNSEILNYQLDKFREVIEANKEKREQKVVFIHGKGDGVLRKAIIDELKRKHSNYRYQDASFQEYGFGATMVTIK
protein production: not failed

MNADTAIRIIEPPPSRGQLLYDGIRSLRKPKPDAAPQLPTERLVRPAVELKADEIARYARACGFRREHGVPLAFPHTLAFPLHLLLLTRPTFPYPASGMVHLANRIRQYQRLEEGQALRLEVFAERWLAHPKGQALSIATRAHSGGSLVWESDSLYLRRGVAGPIGEPWEGSLQWDEQALVRTQRWSLGGDLGRRFAQVSGDFNPIHTSWLGARLFGFRRPIAHGMWTLGRALAAQQPPHPLAAAQLDCEFKLPIFLPAAVTLWNRLPDGPRHEFEVRNNAGDKPHMRGLFIWGAR
protein production: failed

MDTKTKRGFWIGINYSKTNLSLITASAILSIAFYLIYYNTKKTVAAVLFLALAIGAAFFFIKPIVDRDNKKNDINSNIPFFITAFSSLVTSDANIIDVLILLSKKEKLGYLRVEIEKILNLVKNWGMGLAEAINFVAKKTPSDLFSDFLTRFSHAIDSGQDLEEFTRSEVFSTMNSFETAYVSALYSFDLYRDIYVSLLLSFAFLITFIMIMPILIPINVFSVLMLSLIMVALGEFMLVYGISIVLPKDPLWHRTGIKTDTDIKMRNLFLISGTFSMMIFIVIDVMKIMFRIPFYFSFALIVTPLAYPSYVGTKMEREVQKKDEMYGSFIRSLSGSASARGNLLIDALKAIVMHDFGILSKDVNKLYRRLLYRINSLKAWKMFSADTGSHLIEIYSETYAESIDLGADALKSGMVISENFEKIVGLRKRKHSSVTSFVGIMYGITAGLAFSLAISYGILKIIDGIFSSFNLSSLGMTGIFLSPPSSSIFLIEIFLLIILFVHSFIGGISLKVSDGGRIINGLHHTVLMIWIVSFVVYGTMYITTILLGSTVS
protein production: failed

MSFFLTTPAAIDLGVNIDHVATLRNARGTAYPDPVRAALAAEDAGADAITLHLREDRRHIVDADVRTLRPRVKTRMNLECAVTPEMLDIACEIRPHDACLVPEKRSELTTEGGLDVVGHFDAVRAACKQLADAGVRVSLFIDPDEAQIRAAHETGAPVIELHTGRYADAHDAAEQQREFERIATGVDAGIALGLKVNAGHGLHYTNVQAIAALPGIAELNIGHAIVAHAVFVGWDNAVREMKAIMVAARVAALHGGR
protein production: not failed
